According to the RNAGym collection of RNA variant scans (doi:10.1073/pnas.2313332121):

B1: TPR t1 (parent)
chain: GACCAAUCUGCCCUCAGAGCUCGAGAACAUCUUCGGAUGCAGAGGAGGCAGGCUUCGGUGGCGCGAUAGCGCCAACGUCCUCAACCUCCAAUGCAUCCCACCACAUGAUGAUGCCUGAAGAGCCUUGGUUUUUUG

Variants of: B1
Test: polymerase ribozyme fitness, log enrichment relative to wild type (log ratio); higher = more active; in vitro selection for triplet polymerase activity
How it was run: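 To select mutant libraries of each subunit of a heterodimeric triplet polymerase ribozyme, built by PCR and transcribed, each was annealed with a biotinylated primer, partner subunit and triplets, then incubated frozen at −7 °C. Extended constructs were gel-excised, captured on streptavidin beads and amplified by RT-PCR, in one round carried out in triplicate. Illumina sequencing of input and output libraries kept genotypes with ≥10 input reads and ≥1 read per output. Fitness is the base-2 logarithm of genotype enrichment relative to wild-type enrichment, from inverse-variance-weighted replicate averages.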

| Variant | polymerase ribozyme fitness (log ratio) |
| --- | --- |
| C62A C72U G93C | -1.64 |
| G60C U96C C104U G117A | -2.83 |
| G61A G135A | -1.88 |
| G61A C94U U112A | 1.31 |
| G60A U78A G107C A111U | -5.18 |
| G61C U125G | -1.95 |
| G60U C104U U116A | -2.99 |
| U59C G110A | -1.31 |
| G61C C104U G110A | -2.86 |
| C62A C79U C88G G135U | -2.35 |
| G60C G77A | -1.47 |
| C62A C82A C85U | -2.3 |
| G60U U87A C123G | 1.56 |
| G61A G93A C114G | -2.13 |
| G61U C94U | 0.338 |
| G61A C89A | -1.25 |
| G61A U78G C85U A90C | -2.22 |
| G61A U112G | 0.603 |
| G61A U112A | 1.31 |
| G61U U125G | -0.883 |
| C62A G77U C115G | -2.95 |
| C62A U81G | -5.64 |
| G60U C97A C104U U126G | -5.83 |
| G61A G117U | -2.02 |

| Variant | polymerase ribozyme fitness (log ratio) |
| --- | --- |
| G61C C89G G113U U133C | -4.45 |
| G61C C80G G117C | -7.35 |
| C62A G117C | -4.72 |
| G61U U81A | -0.596 |
| C62A U109G G110U | -4.7 |
| G60C C72U | -0.882 |
| G61U C82G A91C U112C | 0.876 |
| G60U A119G | -0.151 |
| G60U G93A | -0.449 |
| G60U G93C | -0.936 |
| G61A U133A | -0.418 |
| G61U A103C | -5.47 |
| C62A G110C G127U | -5.37 |
| U59G G71A | -3.25 |
| G60U C89A A118G | -1.39 |
| C62A A66U | -3.17 |
| G60A C97G G117C | -6.67 |
| G61U A118G | 0.1 |
| G60U C124G | 1.38 |
| G60C C102U G128A | -4.97 |
| G61A C73A C123A | -0.908 |
| G61C G63C | -3.6 |
| G60U A83U A108C C114G G117C | -5.39 |
| G60A C62U U112G | 0.38 |

| Variant | polymerase ribozyme fitness (log ratio) |
| --- | --- |
| G60A C79U U130A | 0.0156 |
| C62A G77U C114G | -4.81 |
| G61A U78C C85U U96C C101U U109G | -5.66 |
| G61U C97A C123A | -4.17 |
| G60A C101G | -1.57 |
| G60C A90C C97U G117C | -6.07 |
| G61U G117A | -0.499 |
| U59C G107A | -5.95 |
| G60A C89A U116G | -4.84 |
| G61U U81G U129A | -4.47 |
| C62A A95U A121C | -0.641 |
| C62A U81A G93A | -2.69 |
| G61U A95U | -0.221 |
| U59C G60C | -0.854 |
| G60A G122A | -0.483 |
| G61U A100C | -0.248 |
| C62A C85G | -2.62 |
| C62A C99U | -3.69 |
| G61C G93U | -2.81 |
| U59G U81G U96G | -3.9 |
| G60A C82U | -0.523 |
| G61U G93U U130A | -1.63 |
| G61A U81G A105U U112G | -5.6 |
| G60U A121U | 1.63 |

| Variant | polymerase ribozyme fitness (log ratio) |
| --- | --- |
| G61C C82U | -1.83 |
| G61C C123G | 0.189 |
| G60U G93C C104A G113C | -4.47 |
| C62A C82U A121U U125A | 1.19 |
| G60C G61A U96A | -2.15 |
| G61A C73G | -1.15 |
| G61A A100U | -0.262 |
| G61A C86G G93C | -2.03 |
| U59G U92A | -3.4 |
| G61C A90U G93A | -4.85 |
| G61C C85U U116A C123U U129A | -6.64 |
| G60U A91U A121U | 0.38 |
| C62A G110A | -2.12 |
| G61C U109A | -4.34 |
| G60A U116G | -2.22 |
| G60C G120U | 0.528 |
| G60C C102U | -2.87 |
| G61A C86U | -0.712 |
| G61C C104A | -3.92 |
| C62A U78C G117A | -3.04 |
| C62A U116G G120C U129A | -3.57 |
| G60A G135U | -0.711 |
| G60A G135A | -0.733 |
| G60C A74C | -4.67 |

| Variant | polymerase ribozyme fitness (log ratio) |
| --- | --- |
| G60C G110U U125G | -2.79 |
| G61U A90U | -2.11 |
| G60A U125A | -0.369 |
| G61A C64A | -6.82 |
| G60A C102A G120C U132C | -1.03 |
| U59G C85U G113A | -1.67 |
| U59G C89A A121G | 0.508 |
| G61U G128A | -1.7 |
| U59C C97A U109C C114G G122U | -6.59 |
| G61U C97A | -3.26 |
| G60C A111U G128U U133A | -6.08 |
| G61A A84U C94A U131C | -0.628 |
| G61A A66G C104A | -3.27 |
| G61C C97U | -2.51 |
| G61C A83C C89U | -2.95 |
| G60U U125G | -0.584 |
| G60A C89U | -0.18 |
| C62A A105G | -4.17 |
| G60A C62U C79G U106G | -5.51 |
| G61C U81A C124G U132C | -2.36 |
| G61A C88A C114G U116C G122A | -5.26 |
| G61U A83G U112C | 1.59 |
| U59G C79A A103G | -5.54 |
| G60U G61U C104A | -5.16 |

| Variant | polymerase ribozyme fitness (log ratio) |
| --- | --- |
| G61A A84C | 0.126 |
| G60A G93A C99U | -5.15 |
| G61A C62U | -1.86 |
| G60A A83C | -0.195 |
| C62A A83U A90U A91C | -3.43 |
| G60A C88U | -0.511 |
| G60A C88G | -1.54 |
| G61U G107A | -5.22 |
| G60A U116C A118C | -3.05 |
| G61A U116A | -2.68 |
| G61U G135A | -0.268 |
| G60C A121G | 1.05 |
| G61A G113A U130G | -1.32 |
| G60U U132A | -0.036 |
| G61U A83C | -0.327 |
| G60A G117C A121U | -2.7 |
| G60C A121C U130A | 0.0713 |
| G60U U87A U126C | -0.499 |
| G60U C97A | -5.24 |
| G60U C97U | -1.7 |
| U59C C102A C115G | -4.44 |
| G61U A68U U87A C114G | -6.91 |
| C62A C101A A111C | -1.51 |
| G61U G77C A119U | -1.73 |

| Variant | polymerase ribozyme fitness (log ratio) |
| --- | --- |
| U59C G127C | -1.09 |
| G61A U78C | -0.183 |
| G60A A90C | -0.936 |
| G60A C64G G69U U132A | -0.296 |
| U59G U92G G110A U133C | -4.4 |
| G61A A90G G128U | -1.55 |
| G61U U81C C86G G113U A119U | -6.31 |
| G61A U130C | 0.204 |
| G60C A95C | -1.25 |
| G60U U78A U106A | 0.283 |
| C62A A103U | -5.71 |
| G60C U130A U133A | -1.59 |
| G61C C89U G113C G120C | -4.9 |
| U59C G117A | -1.62 |
| C62A U87G U106G | -2.77 |
| G61A G110U U132A | -0.611 |
| G61U U106A U116C | -0.163 |
| U59G C101U U131G U133A | -0.675 |
| G60A A100C C104U C123A | -0.726 |
| G61A U92A C123A G127U | -1.55 |
| G61C G107A U112A G117U | -6.86 |
| G60A A91U | -1.09 |
| U59C C101A | -1.32 |
